B1: ProPavCHS probe (dsDNA)
DNA 1: GGGAAAGAAATTAAGTCGGTAGATGATATT
DNA 2: AATATCATCTACCGACTTAATTTCTTTCCC
B2: ProPavDFR probe (dsDNA)
DNA 1: GTAATTACCACCGACCAAAAAAGAACATTG
DNA 2: CAATGTTCTTTTTTGGTCGGTGGTAATTAC
B3: ProPavUFGT probe (dsDNA)
DNA 1: ACTTCACGAGCTCATCGACTAATAAGAAAG
DNA 2: CTTTCTTATTAGTCGATGAGCTCGTGAAGT

target: PavDREB1E-GST (Prunus avium, UniProt A0A6P5RM44 1-238); test: EMSA; unlabeled probe competes; Chemiluminescent EMSA kit (Beyotime), manufacturer's instructions; 2 ug PavDREB1E-GST in PavD8 assays; buffer, salt, pH and temperature not stated; conditions: protein: recombinant; tags: GST; label: biotin; only one strand given
Sequence (A0A6P5RM44 entry or part of it): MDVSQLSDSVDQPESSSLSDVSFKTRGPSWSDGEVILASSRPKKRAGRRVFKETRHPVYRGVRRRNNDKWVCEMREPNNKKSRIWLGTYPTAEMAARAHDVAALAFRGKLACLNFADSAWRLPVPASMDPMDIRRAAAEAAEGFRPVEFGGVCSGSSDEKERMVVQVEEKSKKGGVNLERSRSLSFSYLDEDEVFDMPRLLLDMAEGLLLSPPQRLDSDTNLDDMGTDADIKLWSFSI

Binding result, binds:
B1
B2
B3

target: PavDREB1E-GST;PavD8-GST (Prunus avium;Prunus avium, UniProt A0A6P5RM44;A0A6P5SVV0 1-238;1-537, |); test: EMSA; 2 ug PavDREB1E-GST with 2, 4, 6 ug PavD8-GST; PavD8 enhances the shifted band; Chemiluminescent EMSA kit (Beyotime), manufacturer's instructions; 2 ug PavDREB1E-GST in PavD8 assays; buffer, salt, pH and temperature not stated; conditions: protein: recombinant;recombinant; tags: GST;GST; label: biotin; only one strand given
Sequence (chain, as listed by the source |, chain 1 of 2): as the sequence (A0A6P5RM44 entry or part of it) above
Sequence (chain, as listed by the source |, chain 2 of 2): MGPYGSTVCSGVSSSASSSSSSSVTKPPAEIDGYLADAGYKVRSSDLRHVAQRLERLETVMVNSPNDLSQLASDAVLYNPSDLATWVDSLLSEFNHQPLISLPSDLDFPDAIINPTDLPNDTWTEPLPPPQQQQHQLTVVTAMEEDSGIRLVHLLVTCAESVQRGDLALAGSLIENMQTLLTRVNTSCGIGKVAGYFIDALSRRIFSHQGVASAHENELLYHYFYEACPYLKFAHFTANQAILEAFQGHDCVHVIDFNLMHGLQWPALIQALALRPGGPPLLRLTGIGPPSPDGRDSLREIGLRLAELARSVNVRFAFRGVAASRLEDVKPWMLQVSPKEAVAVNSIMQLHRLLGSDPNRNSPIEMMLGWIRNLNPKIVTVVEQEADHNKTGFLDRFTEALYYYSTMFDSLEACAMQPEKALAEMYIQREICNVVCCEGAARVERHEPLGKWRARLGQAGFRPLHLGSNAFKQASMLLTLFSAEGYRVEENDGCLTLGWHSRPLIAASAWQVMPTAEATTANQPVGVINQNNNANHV

Binding result, binds:
B1
B2
B3
